{"source": "patent US20250044282A1", "molecular_target": "HIV-1 integrase fused to HA tag at the C terminus (INHA) (HIV-1 LAI (BRU)) (UniProt P03367)"}
{"substance": "HIV-1 CA (capsid protein) (from UniProt P03348 133-363)", "values": [{"measurement": "percentage of colocalization", "result": 70, "unit": "%"}]}
